Measurements as given in paper PMC8827053 (RSC Chemical Biology, 2021).

Columns and labels:
Type in all cases: cell-based
SH-SY5Y cells [1] = experiment: Neuronal rescue from Aβ42-induced toxicity; settings: Aβ42 10 μM preincubated 48 h pH 7.4, 24 h treatment, Alamar blue
SH-SY5Y cells [2] = experiment: Membrane toxicity immunocytochemistry; settings: Aβ42 10 μM, 3 h, pH 7.4, OC antibody, confocal
SH-SY5Y cells [3] = experiment: Live/dead assay; settings: Aβ42 10 μM, 24 h, calcein-AM/propidium iodide, ImageJ analysis

Aβ42: Amyloid beta 42 peptide, the most toxic form of Aβ (PDB: 1Z0Q)
Cell viability with Aβ42 alone (SH-SY5Y cells [1]): ~64% | Total area covered by red fluorescence-labelled Aβ aggregates, Aβ42 alone (SH-SY5Y cells [2]): 12.3% | Dead cells, Aβ42 alone (SH-SY5Y cells [3]): ~36%
